Experiment: yeast display, Sf9 membrane polyspecificity reagent, FACS + sequencing; frameworks hold sequencing errors
How it was run: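 After 36–48 hours of galactose induction, yeast (Saccharomyces cerevisiae BJ5465) displaying a synthetic nanobody library were stained at 4 °C for 1 hour with 10% biotinylated, detergent-solubilized Sf9 membrane reagent. Streptavidin microbeads enriched the stained cells before FACS sorting into low and high (top ~1%) gates on anti-HA and streptavidin fluorescence. Each clone's polyreactivity label reflects its gate of origin.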

Row | Sequence | polyreactivity (PSR sort gate)
1 | QVQLVESGGGLVQAGGSLRLSCAASGSTIYGYAMGWDRQAPGKERELVAAISYRGGSTYYADSVKGRFTISRDNAKNTVYLQMNSLKPEDTAVYYCAALGDDATSYGYWGQGTQVTVSS | high polyreactivity
2 | QVQLVESGGGLVQAGGSLRLSCAASGSTIYHNAMGWYRQAPGKERELVAAISSGGSTHYADSVKGRFTISRDNAKNTVYLQMNSLKPEDTAVYYCATYSSVRQLLWGNGYWGQGTQVTVSS | high polyreactivity
3 | QVQLVESGGGLVQAGGSLRLSCAASGSTIYNYAMGSYRPAPGKVRELVASITWNGGSTYYADSVKGRFTISRDNAKNTVYLQMNSLKPEDTAVYYCAAEWTWTYPYDYWGQGTQVTVSS | low polyreactivity
4 | QVQLVESGGGLVQAGGSLRLSCAASGSTIYWYAMGWYRQAPGKERELVAAISLSGGSTYYADSVKGRFTFSRDNAKNTVYLQMNSLKPEDTAVYYCAARTSYYVYRHPSGRYDYWGQGTQVTVSS | low polyreactivity
5 | QVQLVESGGGLVQAGGSLRLSCAASGSTIYWYAMGWYRQAPGKERELVAAISLSGGSTYYADSVKGRFTISRDNAKNTVYLQMNSLKPEDTAVYYCAARTSYYVYRHPSGRYDYWGQGTQVTVSS | low polyreactivity
6 | QVQLVESGGGLVQAGGSLRLSCAASGSTIYWYTMGWYRQPPGKEMELVAAITGGTGNTYYADSVKGRFTISRDNAKNTVYLQMNSLKPEDTAVYYCAAYYRRYDYDYWGQGTQVTVSS | high polyreactivity
7 | QVQLVESGGGLVQAGGSLRLSCAASGSTIYYNAMGWYRQAPGKERELVARISRSGGSTYADSVKGRFTISRDNAKNTVYLQMNSLKPEDTAVYYCNADAYGTPEFTSYAVRYDYWGQGTQVTVSS | low polyreactivity
8 | QVQLVESGGGLVQAGGSLRLSCAASGSTKYYVMGWYRQAPGKERELVAAISRGSSTYYADSVKGRFTISRDNAKNTVYLQMNSLKPEDTAVYYCAARGPWQAPYDYWGQGTQVTVSS | high polyreactivity
9 | QVQLVESGGGLVQAGGSLRLSCAASGSTLAFYAMGWYRQATGKQRELVAAISRSGGRTYYSDSVKGRFTISRDNAKNTVYLQMNSLKPEDTAVYYCAAYWYYYWWYDYWGQGTQVTVSS | high polyreactivity
10 | QVQLVESGGGLVQAGGSLRLSCAASGSTLAIYAMGWYRQAPGKERELVAAISGGGSTYADSVKGRFTISRDNAKNTVYLQMNSLKPEETAVYYCNADGWGDRFWSNFRFDYWGQGTQVTVSS | low polyreactivity
11 | QVQLVESGGGLVQAGGSLRLSCAASGSTLANYAMGWYRQAPGKERELVAAINSGGSTYYADSVKGRFTISRDNAKNTVYLQMNSLKPEDTAVYYCAAETPNYYGWWEPVWHYYWGQGTQVTVSS | high polyreactivity
12 | QVQLVESGGGLVQAGGSLRLSCAASGSTLARYTMGWYRQAPGKERELVATIDFGGVNTYYADSVKGRFTISRDTAKNTVYLQMNSLKPEDTAVYYCAAYNRLKRNVLYDYWGQGTQVTVSS | low polyreactivity
13 | QVQLVESGGGLVQAGGSLRLSCAASGSTLASNAKGWYRQAPGKERELVAAIRVSGASTYYADSVKGRFTISRDNAKNTVYLQMNSLKPEDTAVYYCAADYQFGVIYYYWGQGTQVTVSS | low polyreactivity
14 | QVQLVESGGGLVQAGGSLRLSCAASGSTLATNAMGWYRQAPGKERELVAYADSVKGRFTISRDNAKNTVYLQMNSLNPEDTAVYYCNVVFRYAYGVYYTPEFYYWGQGTQVTVSS | low polyreactivity
15 | QVQLVESGGGLVQAGGSLRLSCAASGSTLATYTMGWYRQAPGKERELVAAISFGGSTYYADSVKGRFTISRDNAKNTVYLQMNSLKPEDTAVYYCAVYGDSYWGAYYYSDGYWGQGTQVTVSS | low polyreactivity
16 | QVQLVESGGGLVQAGGSLRLSCAASGSTLDEYVMGWYRQAPGKEREFVAAISRSGSSTYYADSVKGRFTISRDNAKNTVYLQMNSLKPEDTAVYYCAARLYSSVVRYRYGYWGQGTQVTVSS | high polyreactivity
17 | QVQLVESGGGLVQAGGSLRLSCAASGSTLDIYAMGWYRQAPGKERELVATINSTGGSTYYADSVKGRFTISRDNAKNTVYLQMNSLNPEDTAVYYCAADFGLFGPTTGYIRPYDYWGQGTQVTVSS | low polyreactivity
18 | QVQLVESGGGLVQAGGSLRLSCAASGSTLDKYAMGWYRQAPGKERELVAAISSSGGSTYYADSVKGRFTISRDNAKNTVYLQMNSLKPEDTAVYYCAARFFRGRYLDDYWGQGTQVTVSS | high polyreactivity
19 | QVQLVESGGGLVQAGGSLRLSCAASGSTLDPNVMGWYRQAPGKEREWVAAITTGGSTYYADSVKGRFTFSRDNAKNTVYLQLYSLKPEDTAFYYCNKDIGWLAHSRIWLWYDYWGQGTQVTVAS | low polyreactivity
20 | QVQLVESGGGLVQAGGSLRLSCAASGSTLDSYARGWYRQAPGTERELVAVIDTGGTTNYADSVKGRFTISRDNAKNTVYLQMNSLKPEDTAVYYCAADYAYYGYWFEGYDYWGQGTQVTVSS | low polyreactivity
21 | QVQLVESGGGLVQAGGSLRLSCAASGSTLGANAMGWYRQAPGKERELVAAISISDGDTYYADSVKGRFTISRDNAKNPVYLQMNSLKPEDTAVYYCAADYWFQYRWYDYWGQGTQVTVSS | high polyreactivity
22 | QVQLVESGGGLVQAGGSLRLSCAASGSTLGAYAMGWYRQAPGKERELVAAISRSGGNTYYADSVKGRFTISRDNAKNTVYLQMNSLKPEDTAVYYCAAVKLFLGLCYDYWGQGTQVTVSS | low polyreactivity

Row | Sequence | polyreactivity (PSR sort gate)
23 | QVQLVESGGGLVQAGGSLRLSCAASGSTLGGNAMGWYRQEPGKERELGAAITSSAGSTYYADSVKGRYTISRDNAKNTVYLQMNSLQPEDTAVYYCAADYSRDEYDYWGQGTEVTVSS | low polyreactivity
24 | QVQLVESGGGLVQAGGSLRLSCAASGSTLGLNAMGWYRKAPGKERELVAAISQSGTSTYYADSVKGRFTISRDNAKNTVYLQMNSLKPEDTAVYYCAVEYTQWWTYDYWGQGTQVTVSS | low polyreactivity
25 | QVQLVESGGGLVQAGGSLRLSCAASGSTLGQYVMGWYRQAPGKERELVAAISRRGGRTNYADSVKGRFTISRDNAKNTVYLQMNSLNPEDTAVYYCAAKFRIYRPSKYYYWGQGTQVTVSW | high polyreactivity
26 | QVQLVESGGGLVQAGGSLRLSCAASGSTLGRYAMGWYIQAPGKERELVAAISRGGGSTYYADSVKGRFTISRDNAKNTVYLQMNSLKPEDTAVYYCAARQYIGSPPHRRRFDYWGQGTQVTVSS | high polyreactivity
27 | QVQLVESGGGLVQAGGSLRLSCAASGSTLGRYAMGWYRQAPGKERELVAAISRGGGSTYYADSVKGRFTISRDNAKNTVYLQMNSLKPEYTAVYYCAVGIVHRDSRYYYWGQGTQVTVSS | high polyreactivity
28 | QVQLVESGGGLVQAGGSLRLSCAASGSTLISYTMGWYRQAPGKERELVAAITSAVTTYYADSVKGRFTISRDNAKNTVYLQMNSLIPEDTAVYDCNAVPDTRSGELDYWGQGTQVTVSS | low polyreactivity
29 | QVQLVESGGGLVQAGGSLRLSCAASGSTLKSYVMGWYRQAPGKERELVARISRSGGSTYYADSVKGRFTISRDNAKNTVYLQMNSLKPEDTAVYYCAAATPRLSYDYWGQGTQVTVSS | high polyreactivity
30 | QVQLVESGGGLVQAGGSLRLSCAASGSTLLSNAMGWYTQAPGKERELVAAINYSGGRTYYADSVKGRFTISRDNAKNTVYLQMNSLKPEDTAVYYCNALSSGHGSSSRYDYWGQGTQVTVSS | low polyreactivity
31 | QVQLVESGGGLVQAGGSLRLSCAASGSTLPANSMGWYRQAPGKERELVAAITITTDGSTYYADSVKGRFTISRDNAKNTVYLQMNSLKPEDTAVYYCAVARYRYHIRKMGYWGQGTQVTVSS | low polyreactivity
32 | QVQLVESGGGLVQAGGSLRLSCAASGSTLPSNTMGWYRQAPGKERELVAAISRNGGSTYYADSVKGRFTISRDNAKNTVYLQMNSLKPEDTAVYYCNRVYRERYPYVLYGYWGQGTQVTVSS | high polyreactivity
33 | QVQLVESGGGLVQAGGSLRLSCAASGSTLPVNAMGWYRQAPGKERELVAAINRDGSTNYADSVKRPFTFSRDNAKNTVYLQMNSLKQEDTAVYYCAADGFGYPGKRYDYWGQGTQVTVSS | low polyreactivity
34 | QVQLVESGGGLVQAGGSLRLSCAASGSTLQRYTMGLYRPAPGKERELDAAITQSGGSTFYADSVKGRFTISRDNAKNTVYLQMNSLKPEDTAVYYCAAKLTTGYYYGVPRDYWGQGTQVTVSS | high polyreactivity
35 | QVQLVESGGGLVQAGGSLRLSCAASGSTLQVYARGWYRQAPGKERELVAASSKSGGRTYYADSVKGRFTISRDNAKNTVYLQMNSLKPEDTAVYYCAADVGTAQSTYGYWGQGTQVTVSS | high polyreactivity
36 | QVQLVESGGGLVQAGGSLRLSCAASGSTLRAYAMGWSRQAPGKERELVAAINVSSGGTYYADSVKGRFTISRDNAKNTVYLQMNSLKPEDTAVYYCAARARWAGLRYTRYYYWGQGTQVTVSS | high polyreactivity
37 | QVQLVESGGGLVQAGGSLRLSCAASGSTLRAYTMGWYRQAPGKERELVATITRRGGTTYYADSVKGRFTISRDNAKNTVYLQMNSLKPEDTAVYYCAAKWYSTHRYDYWGQGTQVTVSS | high polyreactivity
38 | QVQLVESGGGLVQAGGSLRLSCAASGSTLRRYAMGWYRQAPGKERDLVAAITSRGTDTYYADSVKGRFTISRDNAKNTVYLQMNSLKPEDTAVYYCAASWVAGGHYGYDYWGQGTQVTVSS | high polyreactivity
39 | QVQLVESGGGLVQAGGSLRLSCAASGSTLRWNAMGWYRQAPGKERELVAAITYSGGSTYYADSVKGRFTISRDNAKNTVYLQMNSLKPEDTAVYYCAADSYRYRPGYGPVLYDYWGQGTQVTVSS | high polyreactivity
40 | QVQLVESGGGLVQAGGSLRLSCAASGSTLSDNAMGWYRQAPGKERELVASISWSGGTYYADSVKGRFTISRDNAKNTVYLQMNSLKPEDTAVYYCAAYIYYNYSRQYWYDYWGQGTQVTVSS | low polyreactivity
41 | QVQLVESGGGLVQAGGSLRLSCAASGSTLSFKAMGWYRQAPGKERELVAGITYSGGSTYYADSVKGRFTISRDNAKNTVYLQMNSLKPEDTAVYYCNKASGVYYGHLDYWGQGTQVTVSS | low polyreactivity
42 | QVQLVESGGGLVQAGGSLRLSCAASGSTLSFNAMGWYRQAPGKERELVAGITYSGGSTYYADSVKGRFTISRDNAKNTVYLQMNILKPEDTAVYYCNKASGVYYGHLDYWGQGTQVTVSS | low polyreactivity
43 | QVQLVESGGGLVQAGGSLRLSCAASGSTLSFNAMGWYRQAPGKERELVAGITYSGGSTYYADYVKGRFTISRDNAKNTVYLQMNSLKPEDTAVYYCNKASGVYYGHLDYWGQGTQVTVSS | low polyreactivity

Reference: the nanobody polyreactivity screen of Harvey et al. (2022)
